Assay results published in PMC314469, “Protein Interaction Networks by Proteome Peptide Scanning” (PLoS Biology, 2004).

T1: Yfr024 SH3 (LSB3_YEAST), P43603
T1 chain: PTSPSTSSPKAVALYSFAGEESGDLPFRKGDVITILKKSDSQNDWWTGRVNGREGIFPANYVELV

T2: Boi1 SH3 (BOI1_YEAST), P38041
T2 chain: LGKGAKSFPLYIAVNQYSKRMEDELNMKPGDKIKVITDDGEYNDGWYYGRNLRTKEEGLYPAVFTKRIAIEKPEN

T3: Yhr016c SH3 (YSC84_YEAST), P32793
T3 chain: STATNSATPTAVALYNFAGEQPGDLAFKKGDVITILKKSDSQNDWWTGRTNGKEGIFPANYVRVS

T4: Boi2 SH3 (BOI2_YEAST), P39969
T4 chain: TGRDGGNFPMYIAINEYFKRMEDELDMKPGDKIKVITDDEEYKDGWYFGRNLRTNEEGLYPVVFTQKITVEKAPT

T5: Rvs167 SH3 (RV167_YEAST), P39743
T5 chain: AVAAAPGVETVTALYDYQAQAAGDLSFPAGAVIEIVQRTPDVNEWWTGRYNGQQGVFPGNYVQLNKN

T6: Myo5 SH3 (MYO5_YEAST), Q04439
T6 chain: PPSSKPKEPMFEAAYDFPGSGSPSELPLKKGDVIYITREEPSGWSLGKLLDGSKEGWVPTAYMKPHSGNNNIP


Key:
Assay in all cases: SPOT array
[1] = target: T1, Yfr024 SH3 (LSB3_YEAST), P43603
[2] = target: T2, Boi1 SH3 (BOI1_YEAST), P38041
[3] = target: Sho1 SH3 (SHO1_YEAST), P40073
[4] = target: T3, Yhr016c SH3 (YSC84_YEAST), P32793
[5] = target: T4, Boi2 SH3 (BOI2_YEAST), P39969
[6] = target: T5, Rvs167 SH3 (RV167_YEAST), P39743
[7] = target: T6, Myo5 SH3 (MYO5_YEAST), Q04439

Sequence of Sho1 SH3 (SHO1_YEAST), P40073 (P40073 295-366): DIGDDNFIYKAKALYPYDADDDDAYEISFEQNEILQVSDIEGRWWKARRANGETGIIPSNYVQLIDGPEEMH

Row | Binder | normalised SPOT signal, Boehringer light units (BLU); mean over the file's lines of this peptide [1] | normalised SPOT signal, Boehringer light units (BLU); mean over the file's lines of this peptide [2] | normalised SPOT signal, Boehringer light units (BLU); mean over the file's lines of this peptide [3] | normalised SPOT signal, Boehringer light units (BLU); mean over the file's lines of this peptide [4] | normalised SPOT signal, Boehringer light units (BLU); mean over the file's lines of this peptide [5] | normalised SPOT signal, Boehringer light units (BLU); mean over the file's lines of this peptide [6] | normalised SPOT signal, Boehringer light units (BLU); mean over the file's lines of this peptide [7]
1 | VKATKWPPKLPEIQ [YMR239C 193-206] | 43.6 | 170 | 25.7 | 49.9 | 0.8 | 9.9 | 57.4
2 | VKRPRLNPFLPRDE [YGL097W 70-83] | 2420 | 135000 | 119 | 348 | 2400 | 4070 | 1190
3 | VHVLKYAPDEPNSL [YDR301W 1194-1207] | 3.3 | 104 | 19.6 | 25.5 | 29.5 | 34.4 | 191

The next lines start with the values.

Row | normalised SPOT signal, Boehringer light units (BLU); mean over the file's lines of this peptide [1] | normalised SPOT signal, Boehringer light units (BLU); mean over the file's lines of this peptide [2] | normalised SPOT signal, Boehringer light units (BLU); mean over the file's lines of this peptide [3] | normalised SPOT signal, Boehringer light units (BLU); mean over the file's lines of this peptide [4] | normalised SPOT signal, Boehringer light units (BLU); mean over the file's lines of this peptide [5] | normalised SPOT signal, Boehringer light units (BLU); mean over the file's lines of this peptide [6] | normalised SPOT signal, Boehringer light units (BLU); mean over the file's lines of this peptide [7] | Binder
4 | 0 | 0 | 36.1 | 6.3 | 19.8 | 32.9 | 54 | VIIGKTTPISPDEE [YOR151C 910-923]
5 | 782 | 1300 | 71.6 | 32.9 | 8.9 | 71.6 | 534 | VKKEKKPPKIPKKV [YPR104C 435-448]
6 | 666 | 151 | 51.5 | 128 | 108 | 267 | 213 | VLFMKGTPEFPKSG [YPL059W 48-61]
7 | -0 | 28.8 | 45.5 | 22.7 | 1.9 | 12.7 | 157 | VLGPKYDPKSPEEH [YNL163C 601-614]
